From patent US10538591B2, “Anti-fibulin-3 antibodies and uses thereof” (THE BRIGHAM AND WOMEN'S HOSPITAL, INC., priority 2014, dated 2020)

Columns and labels:
U251MG glioma cells = test: Temozolomide combination viability assay in U251MG cells; format: cell-based, human; conditions: increasing concentrations, 72 h
Method: The antibody increased the cytotoxicity of TMZ by 30% in average.
Antibodies against fibulin-3 can potentiate the effect of a chemotherapeutic drug. Glioma cells (U251MG cell line) were cultured in presence of increasing doses of temozolomide, which is the standard-of-care drug for treatment of malignant glioma. The drug was combined with antibody vehicle (PBS) or with a fixed dose of anti-Fib3/911 antibody. Viability of the cells was analyzed after 72 h, which is a time period at which temozolomide has only a modest effect on glioma cells.

purified human fibulin-3 = biological target: T1, purified human fibulin-3 (Homo sapiens, UniProt Q12805); test: Western blot and dot-blot detection of fibulin-3; format: binding; conditions: for detection of fibulin-3 by Western blotting: SDS-PAGE, reducing and/or non-reducing conditions
T1 construct: purchased ORIGENE
T1 sequence (Q12805 18-493): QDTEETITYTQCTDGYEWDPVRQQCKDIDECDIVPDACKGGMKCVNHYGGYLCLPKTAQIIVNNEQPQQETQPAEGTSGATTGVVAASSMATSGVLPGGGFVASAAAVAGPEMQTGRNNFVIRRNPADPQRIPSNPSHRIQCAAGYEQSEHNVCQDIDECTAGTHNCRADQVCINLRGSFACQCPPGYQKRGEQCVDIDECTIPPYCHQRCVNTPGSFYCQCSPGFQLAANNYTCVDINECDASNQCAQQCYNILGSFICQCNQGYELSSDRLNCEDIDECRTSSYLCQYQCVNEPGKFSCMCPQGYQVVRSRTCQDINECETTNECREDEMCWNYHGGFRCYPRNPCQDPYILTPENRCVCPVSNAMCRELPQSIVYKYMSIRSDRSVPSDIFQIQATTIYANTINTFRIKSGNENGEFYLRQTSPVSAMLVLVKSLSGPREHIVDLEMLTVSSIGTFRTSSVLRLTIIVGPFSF
Method: CNSI glioma cells were transfected with fibulin-3 cDNA (fib3-OE cells) or a control plasmid (control cells) and cultured for 24 h in serum-free conditions. Conditioned medium was collected and probed by Western blotting with anti-Fib3/911 (911), anti-Fib3/912 (912), or their respective preimmune sera (antibodies and sera were used at 1/5000 dilution).
Two rabbit polyclonal antibodies were commissioned against the 23-amino acid peptide sequence of fibulin-3 involved in Notch activation. The peptide was minimally modified to facilitate the formation of a disulfide bridge necessary to form a conformational, tri-dimensional epitope (FIG. 4). Antibodies against fibulin-3 (“anti-Fib3/911” and “anti-Fib3/912”) were purified by affinity chromatography, aliquoted, and prepared in phosphate-buffered saline (PBS) solution for all subsequent tests.
Purified human fibulin-3 (200 ng/lane, ORIGENE) was subjected to SDS-PAGE in reducing and non-reducing conditions and probed with affinity-purified mAb428.3C11 (0.4 to 20 μg/ml, diluted in PBS from a 2 mg/ml stock).
Concentrated, serum-free culture medium from HEK293 cells (1 mg/ml total protein) was probed with anti-human IgG secondary antibody (HRP conjugate) to detect the chains of antibody in reducing and non-reducing conditions. C) Concentrated medium from HEK293 cells (1 mg/ml total protein) was directly used to probe purified human fibulin-3 (resolved by SDS-PAGE in non-reducing conditions).

Method for U251 glioblastoma cells: In FIG. 27C, U251 glioblastoma cells (5,000 cells/well) were incubated in conditioned medium from control-HEK293 or scFv-expressing HEK293 (1.5 mg/ml total protein). After 48 h cell viability was measured using the CellTiter-Glo kit to measure ATP production (PROMEGA cat #G7572).

Cn1nnc2c(C(N)=O)ncn2c1=O [TMZ, temozolomide]
cytotoxic effect of TMZ alone (U251MG glioma cells): modest, dose-dependent cytoxic effect

B1: chimeric mouse/human mAb428.2: recombinant chimeric antibody with VL and VH of mAb428.2; light chain SEQ ID NO: 23, heavy chain SEQ ID NO: 24 (antibody)
heavy: MYRMQLLSCIALSLALVTNSEVQLVEQIQLVQSGPELKKPGETVKISCKASGYSFTTYGMSWVKQAPGKGLKWMGWINTHSGVPTYADDFKGRFAFFLETSASTAYLQINNLKNEDTATYFCARWVDYWGQGTTLTVSSGTLVTVSSASTKGPSVFPLAPSSKSTSGGTAALGCLVKDYFPEPVTVSWNSGALTSGVHTFPAVLQSSGLYSLSSVVTVPSSSLGTQTYICNVNHKPSNTKVDKKVEPKSCDKTHTCPPCPAPELLGGPSVFIFPPKPKDVLTITLTPKVTCVVVDISKDDPEVQFSWFVDDVEVHTAQTQPREEQFNSTFRSVSELPIMHQDWLNGKEFKCRVNSAAFPAPIEKTISKTKGRPKAPQVYTIPPPKEQMAKDKVSLTCMITDFFPEDITVEWQWNGQPAENYKNTQPIMDTDGSYFVYSKLNVQKSNWEAGNTFTCSVLHEGLHNHHTEKSLSHSPGK
light: MQLLSCIALSLALVTNSDIQMTQSPSSLSASVGDRVTITCRASQSVSSADIKMTQSPSSMYASLGERVTITCKASQDIKSYLSWHQQKPWKSPKTLIYYATSLADGVPSRFSGSGSGQDYSLTISSLESDDTATYYCLQHGKSPYTFGGGTKLEIKGTKVEIKRTVAAPSVFIFPPSDSQLKSGTASVVCLLNNFYPREAKVQWKVDNALQSGNSQESVTEQDSKDSTYSLSSTLTLSKADYEKHKVYACEVTHQGLSSPVTKSFNRGEC
detection of fibulin-3 by Western blotting (purified human fibulin-3): detects the same pattern of bands as purified mouse mAb428.2

B2: scFv428.2: single-chain variable fragment derived from mAb428.2, VL-(G4S)3-VH with Myc and 6xHis tags; SEQ ID NOS: 25, 26 (protein)
scFv: DDIKMTQSPSSMYASLGERVTITCKASQDIKSYLSWHQQKPWKSPKTLIYYATSLADGVPSRFSGSGSGQDYSLTISSLESDDTATYYCLQHGKSPYTFGGGTKLEIKGGGGSGGGGSGGGGSQIQLVQSGPELKKPGETVKISCKASGYSFTTYGMSWVKQAPGKGLKWMGWINTYSGVPTYADDFKGRFAFFLETSASTAYLQINNLKNEDTATYFCARWVDYWGQGTTLTVSSEQKLISEEDLNMHTGHHHHHH
detection of fibulin-3 by Western blotting (purified human fibulin-3): can detect denatured fibulin in reducing and non-reducing conditions | detection of native fibulin-3 by dot-blotting (purified human fibulin-3; non-reduced fibulin-3 on nitrocellulose, scFv428.2 medium 1 mg/ml, mAb428.2 1 μg/ml): able to detect native fibulin-3 by dot-blotting | cytotoxicity of culture media with scFv (U251 glioblastoma cells): induce cytotoxicity in glioblastoma cells
